Laboratory results published in the supplement of paper PMC10065799, “High-throughput profiling of sequence recognition by tyrosine kinases and SH2 domains using bacterial peptide display” (eLife, 2023).

What was measured:
Hck = Hck (UniProt P08631); assay: phosphorylation enrichment, bacterial display (enrichment ratio); higher = better substrate or ligand; peptides without Tyr show the background
Fyn = Fyn (UniProt P06241); assay: as above
c-Abl (mouse) = assay: as above
Fer (mouse) = assay: as above
FGFR1 = FGFR1 (UniProt P11362); assay: as above
Jak2 = Jak2 (UniProt O60674); assay: as above
c-Src = assay: as above
FGFR3 = FGFR3 (UniProt P22607); assay: as above
Fes = Fes (UniProt P07332); assay: as above
AncSZ = assay: as above
EPHB1 = EPHB1 (UniProt P54762); assay: as above
MERTK = MERTK (UniProt Q12866); assay: as above
EPHB2 = EPHB2 (UniProt P29323); assay: as above
SHP2-C SH2 = assay: SH2 binding enrichment of the phosphorylated peptide, bacterial display (enrichment ratio); higher = better substrate or ligand; peptides without Tyr show the background
c-Src SH2 = assay: as above
Grb2 SH2 = Grb2 SH2 (UniProt P62993); assay: as above
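For SH2 binding enrichment of the phosphorylated peptide, bacterial display in this document: peptide library displayed on the E. coli surface as eCPX fusions, selected cells deep-sequenced, score is each peptide's frequency after selection divided by its frequency in the input.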
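For phosphorylation enrichment, bacterial display in this document: 11-residue human phosphosite peptides and single-mutation variants displayed on the E. coli surface, counted by deep sequencing, each peptide's frequency after selection divided by its frequency in the unselected input library; frequency after pTyr selection over input frequency; kinase dosed for 20-30% of maximal phosphorylation in three min.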

Chain of FGFR1 (P11362 whole entry, looked up): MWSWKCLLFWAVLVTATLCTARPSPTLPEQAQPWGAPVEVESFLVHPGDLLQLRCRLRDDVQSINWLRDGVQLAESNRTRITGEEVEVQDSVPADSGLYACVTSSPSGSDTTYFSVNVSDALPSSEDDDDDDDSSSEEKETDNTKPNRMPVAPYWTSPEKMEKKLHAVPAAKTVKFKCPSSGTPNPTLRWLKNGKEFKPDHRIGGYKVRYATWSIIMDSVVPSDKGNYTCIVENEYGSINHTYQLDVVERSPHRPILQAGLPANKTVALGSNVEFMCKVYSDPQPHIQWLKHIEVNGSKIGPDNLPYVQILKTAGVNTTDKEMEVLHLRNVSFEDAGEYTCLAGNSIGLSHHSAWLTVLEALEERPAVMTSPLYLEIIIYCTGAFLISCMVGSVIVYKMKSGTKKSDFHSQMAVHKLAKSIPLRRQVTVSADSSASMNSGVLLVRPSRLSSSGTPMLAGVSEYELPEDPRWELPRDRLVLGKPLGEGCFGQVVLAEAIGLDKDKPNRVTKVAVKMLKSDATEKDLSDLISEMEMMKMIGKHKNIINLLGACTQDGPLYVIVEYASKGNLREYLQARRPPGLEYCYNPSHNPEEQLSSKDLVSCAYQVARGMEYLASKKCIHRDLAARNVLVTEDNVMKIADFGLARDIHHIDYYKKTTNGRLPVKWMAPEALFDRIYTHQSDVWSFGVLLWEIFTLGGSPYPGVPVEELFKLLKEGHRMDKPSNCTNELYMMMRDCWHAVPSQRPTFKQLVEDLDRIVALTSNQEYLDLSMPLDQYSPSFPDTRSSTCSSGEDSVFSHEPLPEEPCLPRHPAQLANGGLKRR
Chain of FGFR3 (P22607 whole entry, looked up): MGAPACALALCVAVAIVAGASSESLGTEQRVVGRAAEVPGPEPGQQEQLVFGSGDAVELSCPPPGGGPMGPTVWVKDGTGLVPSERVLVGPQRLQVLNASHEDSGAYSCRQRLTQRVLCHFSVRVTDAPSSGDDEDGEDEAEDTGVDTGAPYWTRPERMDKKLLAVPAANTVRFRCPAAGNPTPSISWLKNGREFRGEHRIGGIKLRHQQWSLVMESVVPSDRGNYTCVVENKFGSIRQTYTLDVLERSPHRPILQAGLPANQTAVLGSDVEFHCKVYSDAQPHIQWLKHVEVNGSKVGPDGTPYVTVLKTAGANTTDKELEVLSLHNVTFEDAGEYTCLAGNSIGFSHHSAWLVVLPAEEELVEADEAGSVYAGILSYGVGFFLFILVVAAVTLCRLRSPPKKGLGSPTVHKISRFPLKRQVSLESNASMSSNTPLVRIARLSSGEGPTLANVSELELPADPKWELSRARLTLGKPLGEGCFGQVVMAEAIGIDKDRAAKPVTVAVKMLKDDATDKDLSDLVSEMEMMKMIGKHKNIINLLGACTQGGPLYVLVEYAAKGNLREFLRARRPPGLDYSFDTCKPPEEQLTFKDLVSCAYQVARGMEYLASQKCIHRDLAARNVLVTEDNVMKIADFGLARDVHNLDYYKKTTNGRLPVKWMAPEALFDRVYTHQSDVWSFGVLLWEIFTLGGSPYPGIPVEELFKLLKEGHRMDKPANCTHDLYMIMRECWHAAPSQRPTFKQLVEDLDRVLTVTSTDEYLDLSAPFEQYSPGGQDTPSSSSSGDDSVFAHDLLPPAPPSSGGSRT
Chain of MERTK (Q12866 whole entry, looked up): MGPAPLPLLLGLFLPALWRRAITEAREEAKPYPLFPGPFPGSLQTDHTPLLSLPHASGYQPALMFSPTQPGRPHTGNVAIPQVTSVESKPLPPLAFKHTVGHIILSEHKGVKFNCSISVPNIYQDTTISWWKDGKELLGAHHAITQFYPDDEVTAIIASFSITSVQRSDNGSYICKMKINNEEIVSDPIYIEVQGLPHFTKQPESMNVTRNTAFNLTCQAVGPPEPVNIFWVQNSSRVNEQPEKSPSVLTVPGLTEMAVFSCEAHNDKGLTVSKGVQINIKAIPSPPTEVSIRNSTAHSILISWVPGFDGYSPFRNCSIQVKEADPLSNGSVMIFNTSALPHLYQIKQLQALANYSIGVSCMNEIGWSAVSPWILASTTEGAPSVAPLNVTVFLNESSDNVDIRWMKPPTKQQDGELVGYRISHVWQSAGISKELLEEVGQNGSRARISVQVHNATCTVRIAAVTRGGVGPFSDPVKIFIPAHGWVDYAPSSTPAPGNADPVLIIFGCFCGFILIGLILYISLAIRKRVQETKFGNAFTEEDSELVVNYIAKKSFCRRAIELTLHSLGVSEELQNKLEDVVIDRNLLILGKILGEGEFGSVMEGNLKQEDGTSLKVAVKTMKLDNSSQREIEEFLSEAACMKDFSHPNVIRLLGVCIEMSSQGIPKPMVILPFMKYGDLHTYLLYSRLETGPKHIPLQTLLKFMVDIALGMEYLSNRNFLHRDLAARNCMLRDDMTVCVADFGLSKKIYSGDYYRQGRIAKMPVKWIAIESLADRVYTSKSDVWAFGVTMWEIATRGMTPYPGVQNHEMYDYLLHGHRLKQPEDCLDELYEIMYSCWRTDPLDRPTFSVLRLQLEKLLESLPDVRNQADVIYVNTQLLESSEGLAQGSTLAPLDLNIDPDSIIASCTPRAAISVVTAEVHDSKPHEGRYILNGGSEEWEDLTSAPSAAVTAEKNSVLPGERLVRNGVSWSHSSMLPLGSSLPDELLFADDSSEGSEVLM
Chain of Jak2 (O60674 whole entry, looked up): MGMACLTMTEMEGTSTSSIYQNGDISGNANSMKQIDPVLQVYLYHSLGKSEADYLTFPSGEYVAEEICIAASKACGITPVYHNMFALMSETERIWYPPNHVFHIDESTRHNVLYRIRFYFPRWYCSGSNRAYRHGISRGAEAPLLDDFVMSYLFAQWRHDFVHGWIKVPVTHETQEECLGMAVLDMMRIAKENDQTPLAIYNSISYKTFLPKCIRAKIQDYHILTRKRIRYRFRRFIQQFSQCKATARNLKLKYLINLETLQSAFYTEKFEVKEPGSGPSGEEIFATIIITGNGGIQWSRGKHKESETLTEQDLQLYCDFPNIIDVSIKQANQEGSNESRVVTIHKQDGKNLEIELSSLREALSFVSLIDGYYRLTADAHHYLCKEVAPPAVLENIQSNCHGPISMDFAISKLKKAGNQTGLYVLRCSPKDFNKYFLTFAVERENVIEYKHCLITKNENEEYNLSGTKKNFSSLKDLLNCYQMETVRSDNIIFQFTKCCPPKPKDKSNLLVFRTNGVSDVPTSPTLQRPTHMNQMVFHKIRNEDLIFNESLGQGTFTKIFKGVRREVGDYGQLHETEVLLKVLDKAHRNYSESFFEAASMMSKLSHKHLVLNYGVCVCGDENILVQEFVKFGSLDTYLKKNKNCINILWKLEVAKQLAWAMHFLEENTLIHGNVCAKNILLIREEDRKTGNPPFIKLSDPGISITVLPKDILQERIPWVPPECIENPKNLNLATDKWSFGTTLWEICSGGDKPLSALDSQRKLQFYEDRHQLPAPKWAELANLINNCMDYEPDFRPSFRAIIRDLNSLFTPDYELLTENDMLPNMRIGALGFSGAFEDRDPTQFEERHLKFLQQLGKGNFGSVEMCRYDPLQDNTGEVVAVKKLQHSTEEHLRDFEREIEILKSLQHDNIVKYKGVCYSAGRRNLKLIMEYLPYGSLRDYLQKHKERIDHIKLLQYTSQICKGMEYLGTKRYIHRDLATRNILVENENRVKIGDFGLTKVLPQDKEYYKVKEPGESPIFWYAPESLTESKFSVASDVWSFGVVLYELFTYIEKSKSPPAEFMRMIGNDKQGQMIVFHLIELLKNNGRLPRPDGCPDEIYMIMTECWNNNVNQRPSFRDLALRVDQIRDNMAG
Chain of Fyn (P06241 whole entry, looked up): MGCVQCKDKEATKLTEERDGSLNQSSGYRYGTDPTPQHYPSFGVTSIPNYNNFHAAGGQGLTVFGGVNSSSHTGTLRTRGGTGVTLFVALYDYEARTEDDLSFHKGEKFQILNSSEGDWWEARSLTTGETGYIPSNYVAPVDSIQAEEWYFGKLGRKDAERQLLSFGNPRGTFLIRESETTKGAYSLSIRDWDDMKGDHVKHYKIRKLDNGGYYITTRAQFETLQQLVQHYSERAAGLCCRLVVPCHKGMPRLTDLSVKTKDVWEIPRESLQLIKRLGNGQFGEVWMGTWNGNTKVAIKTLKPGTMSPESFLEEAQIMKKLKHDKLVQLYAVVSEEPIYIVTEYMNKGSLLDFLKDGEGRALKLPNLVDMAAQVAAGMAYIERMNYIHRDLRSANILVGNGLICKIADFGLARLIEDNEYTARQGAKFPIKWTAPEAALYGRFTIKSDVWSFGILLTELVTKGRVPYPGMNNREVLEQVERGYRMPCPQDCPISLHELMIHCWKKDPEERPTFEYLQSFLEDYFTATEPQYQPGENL
Chain of Grb2 SH2 (P62993 whole entry, looked up, the tested form may be a part): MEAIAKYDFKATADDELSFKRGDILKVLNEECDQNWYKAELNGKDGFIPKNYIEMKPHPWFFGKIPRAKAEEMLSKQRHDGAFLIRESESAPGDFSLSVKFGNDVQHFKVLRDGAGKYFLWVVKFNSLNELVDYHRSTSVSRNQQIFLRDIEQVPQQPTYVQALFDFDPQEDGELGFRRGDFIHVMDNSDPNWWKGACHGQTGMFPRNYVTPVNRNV
Chain of Hck (P08631 whole entry, looked up): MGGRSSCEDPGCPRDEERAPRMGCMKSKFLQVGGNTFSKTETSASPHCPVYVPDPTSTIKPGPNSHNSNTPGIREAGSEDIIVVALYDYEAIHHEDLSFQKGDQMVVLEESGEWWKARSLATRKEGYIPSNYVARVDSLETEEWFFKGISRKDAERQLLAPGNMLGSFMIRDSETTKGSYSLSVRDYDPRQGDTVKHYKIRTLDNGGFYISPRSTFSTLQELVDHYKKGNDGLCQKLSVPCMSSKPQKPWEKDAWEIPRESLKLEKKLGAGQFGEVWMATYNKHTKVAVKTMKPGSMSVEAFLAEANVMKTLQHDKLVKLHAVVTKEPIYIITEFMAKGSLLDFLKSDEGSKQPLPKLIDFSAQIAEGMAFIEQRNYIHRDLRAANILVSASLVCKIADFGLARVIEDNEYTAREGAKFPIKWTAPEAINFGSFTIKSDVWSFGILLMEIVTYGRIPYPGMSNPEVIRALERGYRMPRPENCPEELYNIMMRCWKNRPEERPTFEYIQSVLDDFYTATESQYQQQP

| Sequence | phosphorylation enrichment (Hck) | phosphorylation enrichment (Fyn) | phosphorylation enrichment (c-Abl (mouse)) | phosphorylation enrichment (Fer (mouse)) | phosphorylation enrichment (FGFR1) | phosphorylation enrichment (Jak2) | phosphorylation enrichment (c-Src) | phosphorylation enrichment (FGFR3) | phosphorylation enrichment (Fes) | phosphorylation enrichment (AncSZ) | phosphorylation enrichment (EPHB1) | phosphorylation enrichment (MERTK) | phosphorylation enrichment (EPHB2) | SH2 binding enrichment (SHP2-C SH2) | SH2 binding enrichment (c-Src SH2) | SH2 binding enrichment (Grb2 SH2) |
| --- | --- | --- | --- | --- | --- | --- | --- | --- | --- | --- | --- | --- | --- | --- | --- | --- |
| RDMMDYMPQGV [CYP21A2_Y259_L261P] | 0.578 | 0.636 | 0.912 | 0.937 | 0.799 | 0.986 | 0.596 | 0.823 | 1.36 | 1.41 | 0.921 | 0.681 | 1.28 | 0.8 | 0.391 | 0.909 |
| REEKNYKLKET [BCLAF1_Y459] | 0.861 | 0.843 | 1.16 | 1.3 | 0.733 | 1.5 | 1.28 | 0.714 | 1.21 | 0.996 | 0.691 | 1.14 | 0.799 | 0.956 | 0.627 | 1.16 |
| REGDKYVSHGA [ASS1_Y113_A111D] | 0.61 | 0.505 | 0.873 | 0.486 | 0.731 | 0.83 | 0.643 | 0.58 | 1.03 | 0.938 | 0.794 | 0.744 | 0.622 | 1.01 | 0.407 | 0.623 |
| REIIAYQPFGK [PRKCG_Y529_P524R_YF] | 0.438 | 0.499 | 0.705 | 0.291 | 0.305 | 0.584 | 0.466 | 0.398 | 0.635 | 0.524 | 0.51 | 0.305 | 0.385 | 0.951 | 1.01 | 1.19 |
| RELGEYALAEY [ALDH1A3_Y492] | 0.765 | 0.614 | 1.67 | 0.74 | 0.694 | 1.81 | 1.14 | 0.714 | 2.76 | 1.44 | 0.858 | 0.55 | 0.785 | 0.691 | 1.18 | 0.707 |
| RELGEYGLQAY [ALDH2_Y497] | 0.824 | 0.822 | 0.962 | 0.949 | 0.676 | 1.32 | 0.696 | 0.977 | 1.61 | 1.55 | 0.699 | 0.562 | 0.754 | 0.749 | 0.451 | 0.745 |
| RENGPYYASYP [GDAP2_Y487_T489A] | 5.46 | 8.25 | 1.94 | 0.691 | 2.29 | 0.661 | 7.26 | 1.92 | 0.869 | 1.04 | 1.58 | 7.74 | 5.74 | 1.13 | 0.705 | 0.822 |
| REVPVYISEDS [SYNM_Y460_G462S] | 1.09 | 0.89 | 2.66 | 1.2 | 1.16 | 3.51 | 1.56 | 1.57 | 2.71 | 2.34 | 1.3 | 1.53 | 1.07 | 0.632 | 0.551 | 1.07 |
| RFLRGYRQYAY [HLA-A_Y137_D140Y] | 0.634 | 1.29 | 1.56 | 0.577 | 0.77 | 4.7 | 1.56 | 0.669 | 1.19 | 1.61 | 1.33 | 0.846 | 0.752 | 0.602 | 0.322 | 0.92 |
| RGFDTYFGFLL [ARSB_Y165_YF] | 6.53 | 8.78 | 1.14 | 4.06 | 3.4 | 4.64 | 6.93 | 3.25 | 1.53 | 1.68 | 4.25 | 5.24 | 4.31 | 0.828 | 0.578 | 0.899 |
| RGSQQYRALPV [TUBB8_Y281_T285P] | 0.388 | 0.655 | 0.694 | 0.434 | 0.803 | 0.789 | 0.588 | 0.546 | 0.686 | 0.618 | 0.533 | 0.525 | 0.563 | 1.49 | 0.646 | 0.944 |
| RGYRVCYTPDS [PTPRF_Y450_Y450C] | 0.618 | 0.602 | 1.16 | 0.71 | 0.784 | 1.86 | 0.985 | 1.36 | 1.61 | 1.32 | 0.892 | 0.634 | 0.909 | 0.687 | 0.41 | 0.534 |
| RHRSGYVLIAM [EFR3A_Y73] | 0.638 | 0.605 | 0.528 | 1.1 | 0.737 | 0.79 | 0.284 | 0.773 | 1.37 | 1.31 | 0.307 | 0.475 | 0.708 | 2.72 | 1.73 | 2.09 |
| RKIMGYSIRTI [IDS_Y490_I485R] | 0.624 | 0.591 | 0.759 | 0.619 | 0.664 | 0.62 | 0.666 | 0.524 | 0.796 | 0.699 | 0.676 | 0.535 | 0.556 | 0.718 | 0.654 | 0.944 |
| RLLRGYDQSAY [HLA-C_Y137] | 0.527 | 0.465 | 0.468 | 0.52 | 0.394 | 0.576 | 0.416 | 0.593 | 0.826 | 0.57 | 0.569 | 0.36 | 0.465 | 0.83 | 0.645 | 0.858 |
| RLLRGYDQYAY [HLA-B_Y137_H137Y] | 0.575 | 0.518 | 0.659 | 0.476 | 0.548 | 0.844 | 0.738 | 0.508 | 0.924 | 0.865 | 0.636 | 0.596 | 0.821 | 0.954 | 2.15 | 1.26 |
| RLLVLYPWTQR [HBB_Y36_V35L] | 0.782 | 0.791 | 0.558 | 0.594 | 0.886 | 0.702 | 0.366 | 0.987 | 1.26 | 1.42 | 0.681 | 0.541 | 0.98 | 1.75 | 1.52 | 1.77 |

| Sequence | phosphorylation enrichment (Hck) | phosphorylation enrichment (Fyn) | phosphorylation enrichment (c-Abl (mouse)) | phosphorylation enrichment (Fer (mouse)) | phosphorylation enrichment (FGFR1) | phosphorylation enrichment (Jak2) | phosphorylation enrichment (c-Src) | phosphorylation enrichment (FGFR3) | phosphorylation enrichment (Fes) | phosphorylation enrichment (AncSZ) | phosphorylation enrichment (EPHB1) | phosphorylation enrichment (MERTK) | phosphorylation enrichment (EPHB2) | SH2 binding enrichment (SHP2-C SH2) | SH2 binding enrichment (c-Src SH2) | SH2 binding enrichment (Grb2 SH2) |
| --- | --- | --- | --- | --- | --- | --- | --- | --- | --- | --- | --- | --- | --- | --- | --- | --- |
| RLLVVYPWTER [HBB_Y36_Q40E] | 0.618 | 0.472 | 0.612 | 0.37 | 0.513 | 1.03 | 0.52 | 0.58 | 1.21 | 1.16 | 0.345 | 0.324 | 0.572 | 2.29 | 1.55 | 2.1 |
| RLVTRYIFNRE [HLA-DQB1_Y62_Y58L_YF] | 0.445 | 0.553 | 0.51 | 0.54 | 0.579 | 0.556 | 0.462 | 0.695 | 0.815 | 0.639 | 0.477 | 0.652 | 0.415 | 0.728 | 0.5 | 0.851 |
| RPSELYFSKIG [SMG1_Y2253_YF] | 1.74 | 0.546 | 0.687 | 0.421 | 0.641 | 0.51 | 0.623 | 0.654 | 0.671 | 0.605 | 0.49 | 0.791 | 0.457 | 0.919 | 0.557 | 1.04 |
| RPSELYYSKIS [SMG1_Y2253_G2258S] | 11.1 | 1.4 | 0.926 | 2.25 | 5.05 | 1.05 | 2.96 | 3.5 | 1.02 | 1.79 | 2.17 | 14.6 | 1.31 | 2.51 | 5.74 | 1.06 |
| RPYVYYYSYLL [PTEN_Y177_R173P] | 2.09 | 1.42 | 1.4 | 0.931 | 7.24 | 2.84 | 2.3 | 4.57 | 1.6 | 1.51 | 2.64 | 5.81 | 1.39 | 1.12 | 0.539 | 0.841 |
| RQQQDYWLKDV [ANPEP_Y600_I603K] | 0.322 | 0.305 | 0.662 | 0.495 | 0.71 | 1.25 | 0.564 | 0.741 | 0.911 | 1.07 | 0.484 | 0.52 | 0.556 | 0.635 | 0.675 | 1.01 |
| RRERDYTNLPS [CSF1R_Y923] | 0.62 | 0.651 | 0.692 | 0.474 | 0.493 | 0.628 | 0.668 | 0.541 | 0.561 | 2.88 | 0.447 | 0.558 | 0.548 | 0.485 | 0.486 | 0.519 |
| RRNTYYASIAK [ACADM_Y353] | 0.853 | 0.762 | 0.939 | 0.611 | 0.536 | 1.12 | 0.81 | 0.76 | 0.889 | 0.902 | 0.702 | 1.13 | 0.541 | 1.66 | 0.953 | 0.889 |
| RRQDLYSARDL [SART1_Y249] | 5.63 | 0.972 | 0.525 | 0.401 | 0.586 | 0.663 | 1.21 | 0.615 | 0.744 | 1.45 | 0.576 | 1.55 | 0.367 | 0.767 | 0.402 | 1.14 |
| RRSKMYLKTRS [LPL_Y329_S325R] | 0.602 | 0.708 | 0.578 | 0.514 | 0.599 | 0.889 | 1.03 | 0.571 | 0.709 | 0.728 | 0.448 | 0.659 | 0.845 | 0.647 | 0.319 | 0.981 |
| RSDEDYLFREE [POR_Y573_YF] | 0.983 | 0.768 | 1.31 | 0.891 | 0.914 | 1.66 | 0.836 | 1.34 | 2.36 | 1.47 | 0.865 | 0.592 | 0.964 | 0.642 | 0.477 | 0.847 |
| RSFSPCDFQPC [TNS1_Y796_Y796C_YF] | 0.786 | 0.783 | 0.427 | 0.584 | 0.672 | 0.705 | 0.583 | 0.822 | 0.972 | 0.83 | 0.54 | 0.643 | 0.991 | 0.602 | 0.693 | 0.945 |
| RSSKTYLKTRS [LPL_Y329_M328T] | 0.706 | 0.593 | 0.853 | 0.708 | 0.499 | 0.596 | 0.856 | 0.583 | 0.967 | 0.739 | 0.609 | 0.985 | 0.561 | 0.875 | 0.758 | 1.23 |
| RTLIRYAKLGN [BEST1_Y131_N133K] | 0.849 | 0.848 | 1.07 | 0.561 | 0.632 | 1.23 | 1.02 | 0.612 | 1.27 | 1.4 | 0.854 | 1.02 | 0.775 | 1.11 | 0.765 | 1.14 |
| RYVTRYIYNRE [HLA-DQB1_Y62] | 0.739 | 0.701 | 0.832 | 0.527 | 0.681 | 1.26 | 1.09 | 0.793 | 1.18 | 1.23 | 0.74 | 0.773 | 0.783 | 0.432 | 0.367 | 0.72 |
| SAEEDYMADAK [KCNT1_Y876] | 0.586 | 0.652 | 0.686 | 0.632 | 0.634 | 1.25 | 0.473 | 0.843 | 1.36 | 1.3 | 0.733 | 0.486 | 0.662 | 0.758 | 0.525 | 0.901 |
